Reference: the supplement of paper PMC9732359
± gives the uncertainty stated by the source.

Assay: protein stability index of a GFP-peptide fusion (yeast GPS) (PSI 1-4); higher = more stable; sorted into four equal gates, so the index is relative within each strain
How it was run: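 Tiled 17-residue yeast protein peptides were fused downstream of GFP in a plasmid that also expresses Cherry, and the pooled library was carried in yeast. Mid-log cultures in leucine-free medium were sorted into four equal gates by GFP/Cherry fluorescence ratio, and plasmids from each gate were PCR-amplified and Illumina-sequenced, with reads assigned to strains by barcodes. The protein stability index for each peptide was each gate's read frequency times its gate number, summed.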

Row | Sequence | protein stability index (doa10∆) | protein stability index (pdr5∆) | protein stability index (san1∆) | protein stability index (ubr1∆)
1 | QQQQQQQNPKFLQSQRQ [SWI1] | 2.84 ± 0.048 | 2.82 ± 0.052 | 2.79 ± 0.045 | 3.25 ± 0.064
2 | QQQQTSPPPQTHQSPPP [SNF5] | 2.883 ± 0.018 | 2.878 ± 0.016 | 2.88 ± 0.016 | 2.901 ± 0.014
3 | QQRGITYLNEVLEKDAA [YGR119C/NUP57] | 3.16 ± 0.093 | 3.27 ± 0.079 | 3.33 ± 0.061 | 3.13 ± 0.09
4 | QRDAEISQPKSMSGRIS [BRR2] | 3.22 ± 0.058 | 3.3 ± 0.055 | 3.23 ± 0.062 | 3.18 ± 0.051
5 | QRDFRKHGAVHMSTYLK [RPL21B] | 2.65 ± 0.048 | 2.42 ± 0.042 | 2.48 ± 0.054 | 2.8 ± 0.038
6 | QRETMKERKLRENIAML [SMC1] | 3.42 ± 0.24 | 3.01 ± 0.19 | 3.04 ± 0.12 | 3.42 ± 0.066
7 | QRHIAVGKQIVNIPSFM [RPS9A] | 2.48 ± 0.056 | 2.74 ± 0.067 | 2.89 ± 0.082 | 2.8 ± 0.065
8 | QRIIADLSADKPTSPFI [SRB8] | 2.78 ± 0.041 | 2.81 ± 0.054 | 2.82 ± 0.043 | 2.94 ± 0.048
9 | QRQERLRQQQQQQDQPE [RPN10] | 3.34 ± 0.098 | 2.88 ± 0.064 | 2.86 ± 0.088 | 3.22 ± 0.056
10 | QRSNISTAIKSLVALGI [CDC53] | 1.86 ± 0.047 | 2.82 ± 0.054 | 2.82 ± 0.049 | 2.48 ± 0.037
11 | QRVCLRSDSYMLHKVLE [RPT6] | 2.84 ± 0.084 | 2.95 ± 0.073 | 2.81 ± 0.067 | 2.84 ± 0.047
12 | QSESRQKRQLHDISKTE [SNU114] | 3 ± 0.096 | 2.87 ± 0.071 | 3.13 ± 0.073 | 3.04 ± 0.046
13 | QSKKLIEEKLSSFSKKT [YIL149C/MLP2] | 2.9 ± 0.056 | 3 ± 0.049 | 2.98 ± 0.053 | 3.02 ± 0.045
14 | QSKLKDVVEYLDKVINK [RPN8] | 2.73 ± 0.094 | 2.32 ± 0.055 | 2.63 ± 0.073 | 2.55 ± 0.046
15 | QSLDTIGGSDAAFEKRY [RPO21] | 3.25 ± 0.095 | 3.38 ± 0.074 | 3.37 ± 0.049 | 3.25 ± 0.06
16 | QSVYNDEKLKTEKLKND [SRB8] | – | 3.74 ± 0.21 | 3.21 ± 0.18 | 3.36 ± 0.22
17 | QSYGGRPYGVGLLIIGY [PRE5] | 2.96 ± 0.078 | 3.01 ± 0.067 | 2.83 ± 0.07 | 2.56 ± 0.071
18 | QTANEKHITVRLTAKRL [SRP14] | 2.75 ± 0.1 | 2.91 ± 0.09 | 2.94 ± 0.082 | 2.92 ± 0.065
19 | QTAVTCESCSTVLCTPT [RPS27B] | 1.89 ± 0.055 | 2.29 ± 0.058 | 2.06 ± 0.071 | 2.09 ± 0.066
20 | QTLLQRSEDPAGLGKTN [YGR119C/NUP57] | 3.31 ± 0.084 | 3.12 ± 0.11 | 3.27 ± 0.078 | 3.39 ± 0.091
21 | QTLYTGDKVVVTIWYRA [SSN3] | 1.22 ± 0.058 | 1.32 ± 0.069 | 1.25 ± 0.13 | 1.47 ± 0.047
22 | QVVGPFHTSFSAVVGPN [SMC4] | 2.53 ± 0.063 | 2.39 ± 0.055 | 2.78 ± 0.055 | 2.73 ± 0.037
23 | QWSMVAQRLQISDYQQL [SWI1] | 1.53 ± 0.057 | 1.65 ± 0.054 | 1.59 ± 0.12 | 1.41 ± 0.054
24 | QWTGGRGGGHHSFEDAH [FAS1] | 3.21 ± 0.24 | 3.47 ± 0.2 | – | –
25 | QWYTLQSQLNVTLSQLV [MED8] | 1.54 ± 0.034 | 2.15 ± 0.032 | 1.85 ± 0.075 | 1.67 ± 0.032
26 | QYMEELADDDEERFSEL [RPL5] | 1.12 ± 0.14 | 1.14 ± 0.18 | – | –
27 | RAFLIEEQKIVKKVVKE [RPL34A] | 3.25 ± 0.099 | 3.02 ± 0.13 | 2.99 ± 0.12 | 3.26 ± 0.091

Row | Sequence | protein stability index (doa10∆) | protein stability index (pdr5∆) | protein stability index (san1∆) | protein stability index (ubr1∆)
28 | RAGGAAASLIMPFLDNQ [PRE7] | – | – | – | 1.11 ± 0.11
29 | RAIILERNAAYQKEYET [RPL7A] | 2.59 ± 0.067 | 2.81 ± 0.05 | 2.62 ± 0.05 | 2.89 ± 0.079
30 | RAKALGIKVTNPKGRLA [RPL32] | 3.62 ± 0.3 | 3.33 ± 0.18 | 2.87 ± 0.23 | 3.39 ± 0.27
31 | RAPQQSVLQLFQSVQLN [SMC2] | 2 ± 0.05 | 1.98 ± 0.044 | 2.24 ± 0.051 | 1.91 ± 0.034
32 | RASIEYYVGQVMRNNES [DIS3] | 3.22 ± 0.067 | 3.21 ± 0.091 | 3.21 ± 0.053 | 3.26 ± 0.063
33 | RAYRIIRAHQTELTHHL [QCR7] | 3.03 ± 0.11 | 3.34 ± 0.081 | 3.01 ± 0.07 | 2.96 ± 0.064
34 | RDGGLRLGEMERDCVIA [RET1] | 3.15 ± 0.18 | 3.3 ± 0.12 | 2.54 ± 0.13 | 3.34 ± 0.095
35 | RDKKEKKQAQKQTKLRK [SMB1] | 3.43 ± 0.072 | 3.53 ± 0.072 | 3.25 ± 0.076 | 3.4 ± 0.045
36 | RDLSEASVYPEYALPKT [RPS26A] | 3.11 ± 0.078 | 3.01 ± 0.067 | 3.16 ± 0.045 | 3.09 ± 0.034
37 | REGLIDTAVKTAETGYI [RPO21] | 1.13 ± 0.058 | 1.37 ± 0.099 | 1.23 ± 0.18 | 1.13 ± 0.051
38 | REKRDRTHFKRMRFPPF [PRP8] | 2.27 ± 0.05 | 2.64 ± 0.069 | 2.22 ± 0.098 | 2.2 ± 0.047
39 | RENMICKIDFQKNFMDQ [RRI2] | 2.9 ± 0.13 | 2.96 ± 0.11 | 3.19 ± 0.067 | 3.24 ± 0.081
40 | RERRAALTDFERFQVMV [RPL14A] | 1.77 ± 0.12 | 2.24 ± 0.094 | 1.41 ± 0.13 | 1.8 ± 0.07
41 | RESFEDNVVRFLNEARD [RPO21] | 3.21 ± 0.15 | 2.98 ± 0.13 | 3.04 ± 0.16 | 2.92 ± 0.11
42 | RETDPLVYNMTSFEQGE [RPT4] | 3.09 ± 0.12 | 2.49 ± 0.11 | 3.23 ± 0.18 | 2.7 ± 0.068
43 | RETLVKTWEKVTLDFGN [SMC2] | 1.77 ± 0.063 | 1.74 ± 0.14 | 1.83 ± 0.28 | 1.27 ± 0.12
44 | RFAFSVIWELDDSANIV [DIS3] | 2.63 ± 0.06 | 2.49 ± 0.067 | 3.01 ± 0.063 | 2.62 ± 0.047
45 | RFISDLLWLVLIHPENF [SWI1] | 1.82 ± 0.081 | 1.28 ± 0.092 | 1.86 ± 0.2 | 2.59 ± 0.18
46 | RFKSQFLYVLIPAGIYW [QCR8] | 1.75 ± 0.14 | 2.15 ± 0.069 | 2.07 ± 0.12 | 2.37 ± 0.092
47 | RFKYAPGTIVLYAERVQ [RPS3] | 1.61 ± 0.072 | 1.65 ± 0.062 | 1.56 ± 0.1 | 1.84 ± 0.093
48 | RFNVVKVSAAAGKANKQ [RPS11A] | 1.44 ± 0.068 | 1.38 ± 0.087 | 2.92 ± 0.18 | 2.22 ± 0.067
49 | RFVLSDDYSNLKREERQ [SMC3] | 2.27 ± 0.085 | 2.65 ± 0.081 | 2.43 ± 0.093 | 2.7 ± 0.059
50 | RFYQLGVDLKLKYSKRR [CSN12] | 1.26 ± 0.12 | 1.16 ± 0.1 | – | 1.15 ± 0.088
51 | RGDSTETSSFGSMFSGD [RRI1] | 3.5 ± 0.087 | 3.27 ± 0.16 | 3.35 ± 0.053 | 3.27 ± 0.15
52 | RGHRIRREFKQYSLERN [PRP8] | 2.44 ± 0.17 | 2.61 ± 0.094 | 2.81 ± 0.23 | 1.97 ± 0.12
53 | RGHVLQFEWHQNSLLTN [SNF2] | 1.93 ± 0.055 | 2.3 ± 0.064 | 3.11 ± 0.056 | 2.6 ± 0.048
